± gives the standard error. For part of these data: This sample holds only a part of the variants without activity.
B1: glmS ribozyme (parent)
chain: AUAAAAGCGCCAGAACUACAGAAAUGUAGUUGACGAGGAGGAGGUUUAUCGAAUUUUCGGCGGAUGCCUCCAAA

Columns and labels:
Settings in all cases: with glucosamine-6-phosphate
glucosamine-6-phosphate [1] = variants of: B1; experiment: kcat; higher = faster cleavage; RNA array
Summary of the method: (§1)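 Sequenced MiSeq chips were the platform: E. coli RNA polymerase transcribed barcoded ribozyme variants on them in situ, and a hybridised Cy3 probe tracked these at 37 °C. After glucosamine-6-phosphate (40 μM to 10 mM) in HEPES/KCl/Mg(OAc)2 buffer was flowed in, tiles were imaged over ~14 h. Signals normalised to baseline and to non-cleaving reference variants were reduced to per-tile medians and fit to one- or two-exponential decays to obtain kobs. kcat and KM were derived through weighted Michaelis–Menten fits across concentrations.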

glucosamine-6-phosphate [2] = variants of: B1; experiment: KM; higher = weaker cofactor use; RNA array
Summary of the method: as §1

glucosamine-6-phosphate [3] = variants of: B1; experiment: self-cleavage kobs at 40 uM GlcN6P; higher = faster cleavage; RNA array
Summary of the method: as §1

glucosamine-6-phosphate [4] = variants of: B1; experiment: self-cleavage kobs at 640 uM GlcN6P; higher = faster cleavage; RNA array
Summary of the method: as §1

glucosamine-6-phosphate [5] = variants of: B1; experiment: self-cleavage kobs at 2500 uM GlcN6P; higher = faster cleavage; RNA array
Summary of the method: as §1

glucosamine-6-phosphate [6] = variants of: B1; experiment: self-cleavage kobs at 10000 uM GlcN6P; higher = faster cleavage; RNA array
Summary of the method: as §1

glucosamine-6-phosphate [7] = variants of: B1; experiment: self-cleavage kobs at 160 uM GlcN6P; higher = faster cleavage; RNA array
Summary of the method: as §1

| Variant | kcat (glucosamine-6-phosphate [1]) [s⁻¹] | KM (glucosamine-6-phosphate [2]) [µM] | self-cleavage kobs at 40 uM GlcN6P (glucosamine-6-phosphate [3]) [s⁻¹] | self-cleavage kobs at 640 uM GlcN6P (glucosamine-6-phosphate [4]) [s⁻¹] | self-cleavage kobs at 2500 uM GlcN6P (glucosamine-6-phosphate [5]) [s⁻¹] | self-cleavage kobs at 10000 uM GlcN6P (glucosamine-6-phosphate [6]) [s⁻¹] | self-cleavage kobs at 160 uM GlcN6P (glucosamine-6-phosphate [7]) [s⁻¹] |
| --- | --- | --- | --- | --- | --- | --- | --- |
| C16U G29A G66A | 0.00966 ± 0.0019 | 597 ± 190 | 0.000592 ± 0.00015 | 0.00534 ± 0.001 | 0.00654 ± 0.0021 | 0.0139 ± 0.0063 | – |
| C16A U47A | 0.000851 ± 0.00014 | 1150 ± 410 | – | 0.000544 ± 0.00013 | 0.000553 ± 0.00011 | 0.000758 ± 0.00011 | 9.46e-05 ± 2.7e-05 |
| A15U C67G | 0.000167 ± 1.9e-06 | 1030 ± 37 | – | 6.43e-05 ± 9.7e-06 | 0.000115 ± 1.8e-05 | 0.000153 ± 1.2e-05 | 2.34e-05 ± 1.1e-05 |
| A15U C67U | 0.00194 ± 0.00074 | – | 5.32e-05 ± 6.3e-06 | 0.000409 ± 3.4e-05 | 0.00189 ± 0.00029 | 0.00167 ± 0.00023 | 0.000161 ± 1.7e-05 |
| C16U A64C | 0.000145 ± 2.5e-05 | 2130 ± 970 | – | 2.44e-05 ± 1.1e-05 | 9.71e-05 ± 1.7e-05 | 0.000113 ± 1.6e-05 | – |
| A15U C70U | 0.00472 ± 0.0018 | 1330 ± 650 | 0.000195 ± 1.7e-05 | 0.00147 ± 0.00031 | 0.00286 ± 0.00048 | 0.00469 ± 0.00065 | 0.000378 ± 4.7e-05 |
| A15U C70A | 6.56e-05 ± 1e-05 | – | – | 3.49e-05 ± 1.2e-05 | 6.73e-05 ± 7e-06 | 4.87e-05 ± 1.1e-05 | – |
| A15U U69C | 0.000652 ± 0.00018 | 1120 ± 510 | 5.12e-05 ± 1.2e-05 | 0.000203 ± 2.7e-05 | 0.000443 ± 7.7e-05 | 0.000677 ± 0.00011 | 8.72e-05 ± 1.3e-05 |
| C16U C50G A53U U55A | 3.66e-05 ± 1e-05 | – | – | 4.65e-05 ± 2.2e-05 | – | – | – |
| C16G G40U | 0.00053 ± 2.1e-05 | 4960 ± 340 | – | 6.22e-05 ± 1.1e-05 | 0.000171 ± 2.7e-05 | 0.000357 ± 4.2e-05 | – |
| C16U A42U A64G | 0.000175 ± 4.3e-05 | – | – | – | 7.15e-05 ± 1.6e-05 | 0.000122 ± 2.6e-05 | – |
| C16G A33C | 4.59e-05 ± 3.9e-06 | – | < 1e-05 | – | 3.96e-05 ± 1.6e-05 | 4.28e-05 ± 1.3e-05 | – |
| C16G C34U | < 1e-05 | – | < 1e-05 | < 1e-05 | – | < 1e-05 | < 1e-05 |
| C16U C70G | 0.000316 ± 9.7e-05 | – | 4.19e-05 ± 6.7e-06 | 0.000186 ± 1.6e-05 | 0.000619 ± 0.00016 | 0.000497 ± 0.00011 | 9.18e-05 ± 8.2e-06 |
| C16G C58A | 0.000242 ± 1.6e-05 | 3440 ± 410 | – | 3.73e-05 ± 9.2e-06 | 0.000104 ± 1.8e-05 | 0.000178 ± 3.1e-05 | – |
| C16U C58G | 0.000176 ± 1.3e-05 | 1730 ± 350 | – | 4.29e-05 ± 9.1e-06 | 0.000117 ± 1.6e-05 | 0.000146 ± 1.3e-05 | – |
| C16A U55C | 0.00122 ± 0.00014 | 2120 ± 400 | 1.93e-05 ± 8.5e-06 | 0.00033 ± 4.4e-05 | 0.000717 ± 8e-05 | 0.000949 ± 0.00011 | 7.75e-05 ± 1.1e-05 |
| C16G U47G C50G C68G | 1.23e-05 ± 1.9e-06 | – | – | – | – | – | – |
| A15U U46G | 0.000901 ± 0.00012 | 1650 ± 380 | – | 0.000292 ± 3.4e-05 | 0.000642 ± 8.4e-05 | 0.000725 ± 7.1e-05 | 6.81e-05 ± 1e-05 |
| C16A C67G | 4.14e-05 ± 5.2e-06 | – | – | 3.73e-05 ± 1.5e-05 | 2.82e-05 ± 1.1e-05 | 4.37e-05 ± 8e-06 | – |
| C16G C70A | 3.75e-05 ± 1.5e-05 | – | – | – | 6.29e-05 ± 1.4e-05 | 2.51e-05 ± 1.1e-05 | – |
| C16G C70G | 5.91e-05 ± 5.2e-06 | – | – | 5.48e-05 ± 9.9e-06 | 6.29e-05 ± 9.7e-06 | 5.09e-05 ± 9.5e-06 | – |
| C16U A33U C71G | 2.09e-05 ± 7.7e-06 | – | – | – | – | – | – |
| A15G G60U | < 1e-05 | – | < 1e-05 | < 1e-05 | – | – | < 1e-05 |
| C16A U56C | 0.000253 ± 8.5e-06 | 1940 ± 160 | < 1e-05 | 6.38e-05 ± 1.8e-05 | 0.000144 ± 3.2e-05 | 0.000211 ± 3.4e-05 | – |
| A15G U65A | 0.00646 ± 0.0018 | 3290 ± 1300 | 9.64e-05 ± 1.3e-05 | 0.000867 ± 0.00018 | 0.00193 ± 0.00048 | 0.00545 ± 0.00064 | 0.000343 ± 0.00011 |
| A15G U30C | 0.0225 ± 0.0031 | 871 ± 170 | 0.00107 ± 0.00018 | 0.0102 ± 0.0015 | 0.0197 ± 0.005 | 0.0186 ± 0.0045 | 0.00315 ± 0.00047 |
| A15G U30A | 0.018 ± 0.005 | 923 ± 360 | 0.000649 ± 0.00011 | 0.00983 ± 0.0012 | 0.0165 ± 0.0028 | 0.0115 ± 0.003 | 0.00255 ± 0.00036 |
| A15G G51A | < 1e-05 | – | – | < 1e-05 | – | – | < 1e-05 |
| C16A U65G | 0.000487 ± 7.9e-05 | 3310 ± 1000 | – | 8.78e-05 ± 1.8e-05 | 0.000156 ± 5.5e-05 | 0.000382 ± 5.9e-05 | – |

Reference: the supplement of paper PMC7125110
